Measured values: patent US20110135636A1 (SYMPHOGEN A S, published 2011)
Residue numbers refer to the chain shown, from its start.

B1: antibody 1347 (antibody, human IgG1, kappa, V domains shown)
VH: QVQLKESGPGLVAPSQSLSITCTVSGFSLTGHGVNWVRQPPGKGLEWLGMIWGDGSTDYNSTLKSRLSISKDNSKSQVFLKMNSLQTDDTARYYCARGYGYLYYFDYWGQGTTLTVSS
VL: ENVLTQSPAIMSASPGEKVTMTCRASSSVSSSYLHWYQQKSGASPKLWIYSTSNLASGVPARFSGSGSGTSYSLTVNSVETEDAATYYCHQYSGFPFTFGSGTKLELKR
notes: Chimeric IgG1 kappa
B2: antibody 1344 (antibody, human IgG1, kappa, V domains shown)
VH: QVQLKESGPGLVAPSQSLSITCTVSGFSLTIYGVHWVRQPPGKGLEWLGVIWAGGNTNYNSALMSRLSISKDNSKSQVFLKMNSLQTDDTAMYFCARGYGYNLDYWGQGTTLTVSS
VL: DIQMTQTTSSLSASLGDRVTISCSASQGISNYLNWYQQKPDGTVKLLIYYTSSLHSGVPSRFSGSGSGTDYSLTISNLEPEDIATYYCQQYSKLPYTFGGGTKLEIKR
notes: Chimeric IgG1 kappa
B3: antibody 1308 (antibody, human IgG1, kappa, V domains shown)
VH: EVQLQQSGAELVRPGSSVKISCKASGYAFSSYWMNWVRQRPGQGLEWIGQIYPGDGDTNYNGKFKGRATLTANKSSSTAYMQLSSLTSEDSAVYFCARRASSLYDVYPYYFDYWGQGTTLTVSS
VL: B2 VL with S24R, G28D, L46V, S53R, P80Q, Y87F, Y91G, S92N, K93T
notes: Chimeric IgG1 kappa
B4: antibody 1024 (antibody, human IgG1, kappa, V domains shown)
VH: QVQLQQPGAELVEPGGSVKLSCKASGYTFTSHWMHWVKQRPGQGLEWIGEINPSSGRNNYNEKFKSKATLTVDKSSSTAYMQFSSLTSEDSAVYYCVRYYGYDEAMDYWGQGTSVTVSS
VL: DIVMTQAAFSNPVTLGTSASISCRSSKSLLHSNGITYLYWYLQKPGQSPQLLIYQMSNLASGVPDRFSSSGSGTDFTLRISRVEAEDVGVYYCAQNLELPYTFGGGTKLEIKR
notes: Chimeric IgG1 kappa
B5: antibody 1320 (antibody, human IgG1, kappa, V domains shown)
VH: QVQLQQPGAELVKPGASMKLSCKASGYTFTNYWMHWVKQRPGQGLEWIGEINPSNGRTNYNEKFKSKATLTVDKSSSTAYMQLSSLTSEDSGVYYCAKGGNYYDYDWDYWGQGTTLTVSS
VL: B2 VL with G28D, Y50H, S53T, Y96W
notes: Chimeric IgG1 kappa
B6: antibody 1030 (antibody, human IgG1, kappa, V domains shown)
VH: EVQLVESGGGLVKPGGSLKLSCAASGFTFSSYALSWVRQTPERRLEWVASISGVGSTYFPDSVKGRFTMSRDNARNILYLQMSSLRSEDTAMYYCARGSDGYFYAMDYWGQGTSVTVSS
VL: DIVLTQSPASLAVSLGQRATISCRASKSVSTSGYSFMHWYQLKPGQPPKLLIYLASNLESGVPARFSGSGSGTDFTLNIHPVEEEDAATYYCQHSREFPLTFGGGTKLEIKR
notes: Chimeric IgG1 kappa
B7: antibody 992 (antibody, human IgG1, kappa, V domains shown)
VH: EVQLQQPGSELVRPGASVKLSCKASGYTFTSYWMHWVKQRPGQGLEWIGNIYPGSRSTNYDEKFKSKATLTVDTSSSTAYMQLSSLTSEDSAVYYCTRNGDYYVSSGDAMDYWGQGTSVTVSS
VL: DIQMTQTTSSLSASLGDRVTISCRTSQDIGNYLNWYQQKPDGTVKLLIYYTSRLHSGVPSRFSGSGSGTDFSLTINNVEQEDVATYFCQHYNTVPPTFGGGTKLEIKR
notes: Chimeric mouse/human IgG1 kappa; the VL entry includes the human kappa constant region
B8: antibody 1208 (antibody, human IgG1, kappa, V domains shown)
VH: EVQLVESGGGLVKPGGSLKLSCAASGFAFSSYDMSWVRQTPEKRLEWVAYIGSGDDNTHYPDSVKGRFTISRHNAKNTLYLQMSSLKSEDTAMYYCARQKYGNYGDTMDYWGQGTSVTVSS
VL: DVVMTQTPLSLPVSLGDQASISCRSSQSLVHSNGNTYLHWYLQKPGQSPKLLIYKVSNRFSGVPDRFSGSGSGTDFTLKISRVEAEDLGVYFCSQSTHVPTFGGGTKLEIKR
notes: Chimeric IgG1 kappa; also called clone 1208

biological target: T1, EGFRvIII (deletion mutant EGFR) (human, UniProt P00533 25-645, limits assumed); assay: EGFRvIII ELISA (Example 1)
T1 construct: also called deltaEGFR; rhEGFRvIII

| binding result | Binder |
| --- | --- |
| no binding | B1 |
| no binding | B2 |
| no binding | B3 |

biological target: T2, recombinant human EGFR extracellular domain with 6xHis (human, UniProt P00533 25-645); assay: SPR competition, competitor 1042
T2 construct: In-house produced; also called 6xHis EGFR ECD; soluble human EGFR ECD; not shown: 6xHis tag
Description: SPR analysis was performed on a Biacore 3000 machine containing four flow cells. A CM5 Biacore chip was conjugated with 10,000 Resonance units (Ru) polyclonal anti-His antibody to flow cells 1-4 according to the manufacturer's instructions. […] Immediately after antigen injection the maximal binding of the Anti-EGFR mAb without competition was established in each flow cell during a reference run. Briefly 5 μl antibody at a concentration of 40 μg/ml was injected over all flow cells with captured EGFR followed by stripping of the antibody/antigen complex with a low pH acid wash (10 sec. contact time with 10 mM Glycine-HCl, pH2). After the determination of Anti-EGFR antibody maximal binding to each flow cell, a competition run was performed during the same Biacore cycle. Flow cells were first saturated with EGFR ECD antigen followed by injection of different reference antibodies or Anti-EGFR antibodies into separate flow cells using the same antigen saturating conditions as outlined above. This step was immediately followed by a second injection of Anti-EGFR antibody over the flow cell saturated with EGFR antigen and competition antibody to minimize the dissociation of either antigen or blocking antibody. Then the antibody/antigen complexes were stripped off with a low pH acid wash (10 sec. contact time with 10 mM Glycine-HCl, pH 2) and the whole cycle beginning with the reference run was repeated with a new Anti-EGFR antibody. The degree of inhibition of tested Anti-EGFR antibodies were determined by comparing the Ru max value of the individual Anti-EGFR antibody before and after competition by introduction of report points recorded two seconds before and after injection of each sample.

| % inhibition [%] | Binder |
| --- | --- |
| 71 | B4 |
| 48 | B5 |
| 11 | B6 |
| 21 | B7 |
| 9 | B8 |

biological target: T3, Cynomolgus EGFR extracellular domain (Cynomolgus monkey (Macaca fascicularis), UniProt P55245 25-645 (rhesus entry)); assay: ELISA on cynomolgus EGFR ECD (Example 10)
T3 construct: Cloned without signal peptide; also called Cynomolgus rEGFR ECD; Cynomolgus EGFR ECD
Description: To verify that tested Anti-EGFR antibodies bound equally well to both Human and Cynomolgus EGFR ECD and accordingly warranting toxicology studies in Cynomolgus monkeys, serial four fold dilutions of antibodies beginning from 1 μg/ml were tested by ELISA for binding to recombinant Human and Cynomolgus EGFR ECD proteins. […] ELISA wells were coated with 50 μl/well of full length EGFR at a concentration of 1 μg/ml in PBS overnight at 4° C. The next morning wells were washed twice with PBS-T and blocked for one hour with 100 μl PBS-T-1% BSA at room temperature, followed by wash twice in PBS-T. Next 50 μl of serially diluted Anti-EGFR antibodies and control antibodies were added to wells and incubated for one hour at room temperature. After antibody incubation wells were washed five times with PBS-T, followed by incubation with 50 μl/well Streptavidin-HRP secondary reagent diluted 1:3000 in blocking buffer and incubation at room temperature for 30 min. Finally wells were washed five times with PBS-T and plates were developed by adding 50 μL/well TMB substrate and incubated at room temperature. After incubation the reaction was stopped by addition of 1 M H₂SO₄; 100 μl/well and plates were read at OD 450 nm.

| binding result | Binder |
| --- | --- |
| binds | B1 |
| binds | B2 |
| binds | B3 |
| no binding | B5 |
| binds | B6 |

biological target: T4, wild type full length EGFR purified from A431 cells (human, UniProt P00533 25-1210); assay: competition ELISA, competitor Ab-1; set-up: concentration or dose not given beside the values
T4 construct: mature; Bought; coated on ELISA wells; also called full length EGFR receptor antigen; Sigma E3641
Description: (§1) The ELISA was adapted from the descriptions published in Ditzel et al, 1995, The Journal of Immunology, Vol 154, Issue 2 893-906.
(§2) An epitope blocking ELISA was performed by diluting full length EGFR receptor antigen to 0.5 μg/ml in PBS; and coating 50 μl/ELISA well overnight at 4° C. […] Finally wells were washed four times with PBS-T and plates were developed by adding 50 μl/well TMB and read at 620 nm every 5-15-30 min. The degree of inhibition was calculated from the formula: % inhibition=(1−(OD competition/OD no competition (PBS)))×100.

| % inhibition [%] | Binder |
| --- | --- |
| 3 | B4 |
| 19 | B2 |
| 4 | B3 |
| 9 | B5 |
| 91 | B6 |
| 78 | B7 |
| 82 | B8 |

biological target: T4, wild type full length EGFR purified …; assay: competition ELISA, competitor Ab-2; set-up: concentration or dose not given beside the values
Description: as §1, §2

| % inhibition [%] | Binder |
| --- | --- |
| 75 | B4 |
| 14 | B2 |
| 11 | B3 |
| -9 | B5 |
| -1 | B6 |
| 77 | B7 |
| 20 | B8 |

biological target: T4, wild type full length EGFR purified …; assay: competition ELISA, competitor Ab-3; set-up: concentration or dose not given beside the values
Description: as §1, §2

| % inhibition [%] | Binder |
| --- | --- |
| 11 | B4 |
| 40 | B2 |
| 19 | B3 |
| 0 | B5 |
| -35 | B6 |
| -21 | B7 |
| -10 | B8 |

biological target: T4, wild type full length EGFR purified …; assay: competition ELISA, competitor Ab-5; set-up: concentration or dose not given beside the values
Description: as §1, §2

| % inhibition [%] | Binder |
| --- | --- |
| 12 | B4 |
| 28 | B2 |
| 0 | B3 |
| 6 | B5 |
| 92 | B6 |
| -3 | B7 |
| 84 | B8 |

biological target: T4, wild type full length EGFR purified …; assay: competition ELISA, competitor Ab-10; set-up: concentration or dose not given beside the values
Description: as §1, §2

| % inhibition [%] | Binder |
| --- | --- |
| 27 | B4 |
| 36 | B2 |
| 12 | B3 |
| 7 | B5 |
| 92 | B6 |
| -14 | B7 |
| 89 | B8 |

biological target: T4, wild type full length EGFR purified …; assay: competition ELISA, competitor Ab-11; set-up: concentration or dose not given beside the values
Description: as §1, §2

| % inhibition [%] | Binder |
| --- | --- |
| 18 | B4 |
| 82 | B2 |
| 91 | B3 |
| 8 | B5 |
| -20 | B6 |
| -2 | B7 |
| -3 | B8 |

biological target: T4, wild type full length EGFR purified …; assay: competition ELISA, competitor ICR10; set-up: concentration or dose not given beside the values
Description: as §1, §2

| % inhibition [%] | Binder |
| --- | --- |
| 11 | B4 |
| 82 | B2 |
| 71 | B3 |
| 2 | B5 |
| 12 | B6 |
| -20 | B7 |
| -21 | B8 |

biological target: T2, recombinant human EGFR extracellular …; assay: SPR (BIAcore 2000); IgG captured on anti-human Fc, soluble monovalent EGFR ECD injected
Description: Kinetic analysis of the full length IgG antibodies of the invention was performed on a BIAcore 2000, employing an assay as described in (Canziani, Klakamp, et al. 2004, Anal. Biochem, 325:301-307) allowing measurement of monovalent affinities of whole IgG molecules against soluble antigen. […] The chip surface was regenerated in between cycles by stripping the captured antibody/antigen complexes with a 10 second injection of 100 mM H₃PO₄. […] The association rate constant (ka) and dissociation constant (kd) were evaluated globally from the generated sensograms with the BIA evaluation software 4.1 provided by the manufacturer.

| Kd [nM] | koff [s⁻¹] | kon [M⁻¹ s⁻¹] | t1/2 [min] | Binder |
| --- | --- | --- | --- | --- |
| 26.7 | 0.0049 | 180000 | 2.4 | B4 |
| 21.4 | 0.0005 | 24000 | 22.9 | B1 |
| 24.2 | 0.0028 | 120000 | 4.1 | B5 |
| 29.2 | 0.00037 | 13000 | 31.1 | B6 |
|  |  |  | 0.2 | B7 |
